{
  "source": "patent US20230295571A1",
  "about": "“COMPOSITIONS AND METHODS FOR STEM CELL CHONDROGENESIS” (Washington University, priority 2020, published 2023)",
  "key": {"VEGFR2": {"molecular_target": "VEGFR2 (Homo sapiens, UniProt P35968)", "sequence (P35968 20-1356, species assumed)": "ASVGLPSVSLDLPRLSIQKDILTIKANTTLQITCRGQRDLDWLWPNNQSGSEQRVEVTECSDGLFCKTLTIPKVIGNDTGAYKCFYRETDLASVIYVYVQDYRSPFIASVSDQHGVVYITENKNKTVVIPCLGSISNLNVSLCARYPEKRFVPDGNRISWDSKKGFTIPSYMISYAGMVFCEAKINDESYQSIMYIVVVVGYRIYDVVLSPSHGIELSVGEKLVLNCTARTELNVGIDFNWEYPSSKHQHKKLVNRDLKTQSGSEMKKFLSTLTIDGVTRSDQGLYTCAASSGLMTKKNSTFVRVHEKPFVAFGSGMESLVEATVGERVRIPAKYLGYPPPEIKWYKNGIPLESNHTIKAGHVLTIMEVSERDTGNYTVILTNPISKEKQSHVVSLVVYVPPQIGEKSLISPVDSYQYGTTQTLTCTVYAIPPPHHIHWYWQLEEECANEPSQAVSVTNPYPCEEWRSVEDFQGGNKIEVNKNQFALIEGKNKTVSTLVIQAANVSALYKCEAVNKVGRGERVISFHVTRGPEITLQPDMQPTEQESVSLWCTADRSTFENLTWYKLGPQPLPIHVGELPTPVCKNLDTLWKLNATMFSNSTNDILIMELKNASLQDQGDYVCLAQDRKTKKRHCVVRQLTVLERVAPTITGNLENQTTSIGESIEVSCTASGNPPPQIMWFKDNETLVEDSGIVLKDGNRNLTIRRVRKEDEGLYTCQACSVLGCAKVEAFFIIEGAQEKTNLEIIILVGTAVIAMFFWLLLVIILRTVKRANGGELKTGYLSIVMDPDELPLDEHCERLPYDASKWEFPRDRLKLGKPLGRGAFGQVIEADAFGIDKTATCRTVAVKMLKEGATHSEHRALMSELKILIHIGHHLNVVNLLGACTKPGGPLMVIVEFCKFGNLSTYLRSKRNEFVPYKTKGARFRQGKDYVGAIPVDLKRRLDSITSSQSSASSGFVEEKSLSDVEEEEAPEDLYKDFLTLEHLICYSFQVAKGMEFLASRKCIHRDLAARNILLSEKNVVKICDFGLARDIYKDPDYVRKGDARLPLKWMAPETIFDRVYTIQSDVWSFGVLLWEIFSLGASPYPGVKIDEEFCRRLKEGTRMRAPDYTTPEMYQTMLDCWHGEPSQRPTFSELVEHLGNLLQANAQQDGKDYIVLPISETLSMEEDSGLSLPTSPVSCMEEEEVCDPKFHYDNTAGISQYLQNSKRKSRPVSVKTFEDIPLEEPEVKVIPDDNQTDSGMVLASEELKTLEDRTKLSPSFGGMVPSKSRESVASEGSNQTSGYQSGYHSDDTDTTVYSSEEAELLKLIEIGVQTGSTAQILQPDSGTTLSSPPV", "settings": "cell-free assays; cited from earlier work"}, "[1]": {"system": "hiPSC chondrogenic pellets", "assay": "RT-qPCR of pellets treated with WNT ligands", "format": "cell-based, human", "experimental": "(§1) WNT ligands treatment during chondrogenesis. For WNT ligands treatment during chondrogenesis, pellets were treated with either 10 ng ml^−1 TGF-β3 (control group) or a combination of 10 ng ml^−1 TGF-β3 and 100 ng ml^−1 individual WNT ligand (WNT2B, WNT3A, WNT4, WNT5B, or WNT7B, all from R&D system) in chondrogenic medium from d0 to d42 as appropriate. For WNT ligands treatment during the Cp stage, cells were supplemented with either 20 ng ml^−1 BMP4 (R&D Systems, #314-BP-010) alone (control group), a combination of 20 ng ml^−1 BMP4 and 1 μM WNT-059, or a combination of 20 ng ml^−1 BMP4 and 100 ng ml^−1 WNT3A (R&D Systems, #5036-WN-010) in mesodermal differentiation medium from d7 to d12.\nRT-qPCR. RNA of the pellets was isolated using the Total RNA Purification Kit according to the manufacture's protocol (Norgen Biotek, #37500). Reverse transcription of the RNA was performed using SuperScript VILO Master Mix (Thermo Fisher, #11755050). Fast SYBR Green Master Mix (Thermo Fisher, #4385614) was used for reverse transcription-quantitative polymerase chain reaction (RT-qPCR) according to the manufacturer's instructions on the QuantStudio 3 (Thermo Fisher). Gene expression was analyzed using the ΔΔCT method relative to undifferentiated hiPSCs with the reference gene TATA-box-binding protein (TBP)."}, "[2]": {"system": "hiPSC chondrogenic pellets", "assay": "Biochemical analysis of cartilaginous matrix production (GAG/DNA) in hiPSC chondrogenic pellets", "format": "cell-based, human", "settings": "100 ng/ml WNT ligand + TGF-β3 vs TGF-β3 only", "experimental": "Chondrogenic differentiation. Cells dissociated at the Cp stage were resuspended at 5×10^5 cells per mL in chondrogenic medium consisting of DMEM/F-12, 1% FBS, 1% ITS+, 55 μM β-mertcaptoethanol, 100 nM dexamethasone (DEX; Sigma-Aldrich, #D4902), 1% NEAA (Gibco, #11140050), 1% P/S, 10 ng ml^−1 human transforming growth factor-beta 3 (TGF-β3; R&D Systems, #243-B3-010), 50 μg ml^−1 L-ascorbic acid 2-phosphate (ascorbate; Sigma-Aldrich, #A8960), and 40 μg ml^−1 L-Proline (proline; Sigma-Aldrich, #P5607). Cells were then centrifuged for 5 min at 300×g to form a pellet. Chondrogenic pellets were cultured at 37° C. for up to the timepoints required for various experiments.\nWNT-C59 and ML329 treatment for WNT and MITF inhibition. For WNT-C59 treatment for WNT inhibition during chondrogenesis, pellets were treated with either 10 ng ml^−1 TGF-β3 (control group) or a combination of 10 ng ml^−1 TGF-β3 and 1 μM WNT-C59 in a chondrogenic medium from d0 to d42 as appropriate. […]\nBiochemical analysis of cartilaginous matrix production. […] GAG content, as calculated based on the standard curve, was normalized to double-stranded DNA content to obtain the GAG/DNA ratio."}, "[3]": {"system": "CD146/CD166+ cells at the Cp stage", "assay": "FACS for progenitors at the Cp stage", "format": "cell-based, human", "settings": "with BMP4, 1 μM WNT-C59 or 100 ng/ml WNT3A", "experimental": "as §1\nFACS for progenitors. […] Data were analyzed using FlowJo software (version 10.5.3)."}, "[4]": {"system": "hiPSC chondrogenic pellets", "assay": "Immunohistochemistry of collagens in pellets", "format": "cell-based, human", "settings": "pellet culture", "experimental": "as §1\nImmunohistochemistry. Histologic sections (8 μm thick) of the pellets were rinsed with xylenes three times and rehydrated before labeling. Antigen retrieval was performed with 0.02% proteinase K for 3 min at 37° C. for COL2A1 and COL6A1 and with pepsin for 5 min at room temperature for COL1A1 and COL10A1 followed by peroxidase quench then serum blocking for 30 min at room temperature. […]"}},
  "data": [
    {"molecule": "CCN(CC)CCCCNc1ncc2cc(-c3cc(OC)cc(OC)c3)c(NC(=O)NC(C)(C)C)nc2n1", "note": "[PD173074]", "values": [
      {"measurement": "IC50", "setting": "VEGFR2", "value": "100 to 200", "unit": "nM"}
    ]},
    {"molecule": "WNT7B: WNT ligand (R&D system) added at 100 ng/ml (protein, UniProt P56706 25-349, looked up) Protein Wnt-7b: ALSSVVALGANIICNKIPGLAPRQRAICQSRPDAIIVIGEGAQMGINECQYQFRFGRWNCSALGEKTVFGQELRVGSREAAFTYAITAAGVAHAVTAACSQGNLSNCGCDREKQGYYNQAEGWKWGGCSADVRYGIDFSRRFVDAREIKKNARRLMNLHNNEAGRKVLEDRMQLECKCHGVSGSCTTKTCWTTLPKFREVGHLLKEKYNAAVQVEVVRASRLRQPTFLRIKQLRSYQKPMETDLVYIEKSPNYCEEDAATGSVGTQGRLCNRTSPGADGCDTMCCGRGYNTHQYTKVWQCNCKFHWCCFVKCNTCSERTEVFTCK", "values": [
      {"measurement": "chondrogenic markers (SOX9, ACAN, COL2A1) and osteogenic marker (COL1A1)", "setting": "[1]; 100 ng/ml WNT ligand + TGF-β3 vs TGF-β3 only", "value": "significantly decreased"},
      {"measurement": "expression of MITF", "setting": "[1]; 100 ng/ml WNT ligand, relative to TGF-β3 pellets", "value": "significantly lower"}
    ]},
    {"molecule": "WNT3A: WNT ligand (R&D Systems) added at 100 ng/ml (protein, UniProt P56704 19-352, looked up) Protein Wnt-3a: SYPIWWSLAVGPQYSSLGSQPILCASIPGLVPKQLRFCRNYVEIMPSVAEGIKIGIQECQHQFRGRRWNCTTVHDSLAIFGPVLDKATRESAFVHAIASAGVAFAVTRSCAEGTAAICGCSSRHQGSPGKGWKWGGCSEDIEFGGMVSREFADARENRPDARSAMNRHNNEAGRQAIASHMHLKCKCHGLSGSCEVKTCWWSQPDFRAIGDFLKDKYDSASEMVVEKHRESRGWVETLRPRYTYFKVPTERDLVYYEASPNFCEPNPETGSFGTRDRTCNVSSHGIDGCDLLCCGRGHNARAERRREKCRCVFHWCCYVSCQECTRVYDVHTCK", "values": [
      {"measurement": "GAG/DNA ratio", "setting": "[2]", "value": "significantly decreased"},
      {"measurement": "percentage of CD146/CD166+ cells", "setting": "[3]", "value": "increased"},
      {"measurement": "COL2A1, COL1A1, and COL10A1 expression", "setting": "[1]; 100 ng/ml WNT ligand + TGF-β3 vs TGF-β3 pellets", "value": "increased"},
      {"measurement": "COL1A1 and COL10A1 staining/production", "setting": "[4]", "value": "higher intensity"}
    ]}
  ]
}
